Laboratory results from patent publication US20260347496 (published 2026).

Target: CD24(27-56aa)-GST NEOX-4 (human)
Test: ELISA

CD24(27-56aa)-GST NEOX-4 (human), sequence (chain, as listed by the source): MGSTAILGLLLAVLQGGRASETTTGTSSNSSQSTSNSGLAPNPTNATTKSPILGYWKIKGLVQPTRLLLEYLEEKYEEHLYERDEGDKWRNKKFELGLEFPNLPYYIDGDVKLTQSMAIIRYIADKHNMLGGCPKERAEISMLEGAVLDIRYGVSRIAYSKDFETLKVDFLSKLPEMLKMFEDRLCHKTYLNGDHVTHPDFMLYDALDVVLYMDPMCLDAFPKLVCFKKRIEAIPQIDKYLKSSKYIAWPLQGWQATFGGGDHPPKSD

Binder	EC50
huG14-221 (antibody, V domains shown) VH: EVQLVESGGGLVKPGGSLRLSCAASGLTFSNYWMNWVRQAPGKGLEWVALIRLYSDNYAIHYAESVKGRFTISRDDSKSTVYLQMNSLKTEDTAVYYCTTGTDNWGQGTTVTVSS VL: DVVMTQSPLSLPVTPGRPASISCKSSQSLLYSNGKTYLNWLLQKPGQSPQRLIYLVSKLDSGVPDRFSGSGSGTDFTLKISRVEAEDLGVYYCIQGTYFPYTFGQGTKLEIK	5.93 ng/mL
huG14-222 (antibody, V domains shown) VH: EVQLVESGGGLVKPGGSLRLSCAASGLTFSNYWMNWVRQAPGKGLEWVALIRLYSDNYAIHYAESVKGRFTISRDDSKSTVYLQMNSLKTEDTAVYYCTTGTDNWGQGTTVTVSS VL: DVVMTQSPLSLPVTPGRPASISCKSSQSLLYSNGRTYLNWLLQKPGQSPQRLIYLVSKLDSGVPDRFSGSGSGTDFTLKISRVEAEDLGVYYCIQGTYFPYTFGQGTKLEIK	4.91 ng/mL
huG14-231 (antibody, V domains shown) VH: EVQLVESGGGLVKPGGSLRLSCAASGLTFSNYWGNWVRQAPGKGLEWVALIRLYSDNYAIHYAESVKGRFTISRDDSKSTVYLQMNSLKTEDTAVYYCTTGTDNWGQGTTVTVSS VL: DVVMTQSPLSLPVTPGRPASISCKSSHSLLYSNGRTYLNWLLQKPGQSPQRLIYLVSKLDSGVPDRFSGSGSGTDFTLKISRVEAEDLGVYYCIQGTYFPYTFGQGTKLEIK	8.25 ng/mL
huG14-223 (antibody, V domains shown) VH: EVQLVESGGGLVKPGGSLRLSCAASGLTFSNYWMNWVRQAPGKGLEWVALIRLYSDNYAIHYAESVKGRFTISRDDSKSTVYLQMNSLKTEDTAVYYCTTGTDNWGQGTTVTVSS VL: DVVMTQSPLSLPVTPGRPASISCKSSHSLLYSNGKTYLNWLLQKPGQSPQRLIYLVSKLDSGVPDRFSGSGSGTDFTLKISRVEAEDLGVYYCIQGTYFPYTFGQGTKLEIK	4.82 ng/mL
huG14-227 (antibody, V domains shown) VH: EVQLVESGGGLVKPGGSLRLSCAASGLTFSNYWGNWVRQAPGKGLEWVALIRLYSDNYAIHYAESVKGRFTISRDDSKSTVYLQMNSLKTEDTAVYYCTTGTDNWGQGTTVTVSS VL: DVVMTQSPLSLPVTPGRPASISCKSSHSLLYSNGRTYLNWLLQKPGQSPQRLIYLVSKLDSGVPDRFSGSGSGTDFTLKISRVEAEDLGVYYCVQGTYFPYTFGQGTKLEIK	7.63 ng/mL
huG14-224 (antibody, V domains shown) VH: EVQLVESGGGLVKPGGSLRLSCAASGLTFSNYWMNWVRQAPGKGLEWVALIRLYSDNYAIHYAESVKGRFTISRDDSKSTVYLQMNSLKTEDTAVYYCTTGTDNWGQGTTVTVSS VL: DVVMTQSPLSLPVTPGRPASISCKSSHSLLYSNGRTYLNWLLQKPGQSPQRLIYLVSKLDSGVPDRFSGSGSGTDFTLKISRVEAEDLGVYYCIQGTYFPYTFGQGTKLEIK	6.18 ng/mL
huG14-212 (antibody, V domains shown) VH: EVQLVESGGGLVKPGGSLRLSCAASGLTFSNYWGNWVRQAPGKGLEWVALIRLYSDNYAIHYAESVKGRFTISRDDSKSTVYLQMNSLKTEDTAVYYCTTGTDYWGQGTTVTVSS VL: DVVMTQSPLSLPVTPGRPASISCKSSHSLLYSNGKTYLNWLLQKPGQSPQRLIYLVSKLDSGVPDRFSGSGSGTDFTLKISRVEAEDLGVYYCVQGTYFPYTFGQGTKLEIK	3.19 ng/mL
huG14-220 (antibody, V domains shown) VH: EVQLVESGGGLVKPGGSLRLSCAASGLTFSNYWMNWVRQAPGKGLEWVALIRLYSDNYAIHYAESVKGRFTISRDDSKSTVYLQMNSLKTEDTAVYYCTTGTDNWGQGTTVTVSS VL: DVVMTQSPLSLPVTPGRPASISCKSSHSLLYSNGRTYLNWLLQKPGQSPQRLIYLVSKLDSGVPDRFSGSGSGTDFTLKISRVEAEDLGVYYCVQGTYFPYTFGQGTKLEIK	5.17 ng/mL
huG14-233 (antibody, V domains shown) VH: EVQLVESGGGLVKPGGSLRLSCAASGLTFSNYWGNWVRQAPGKGLEWVALIRLYSDNYAIHYAESVKGRFTISRDDSKSTVYLQMNSLKTEDTAVYYCTTGTDNWGQGTTVTVSS VL: DVVMTQSPLRLPVTPGRPASISCKSSHSLLYSNGRTYLNWLLQKPGQSPQRLIYLVSKLDSGVPDRFSGSGSGTDFTLKISRVEAEDLGVYYCIQGTYFPYTFGIGTKLEIK	8.41 ng/mL
huG14-214 (antibody, V domains shown) VH: EVQLVESGGGLVKPGGSLRLSCAASGLTFSNYWGNWVRQAPGKGLEWVALIRLYSDNYAIHYAESVKGRFTISRDDSKSTVYLQMNSLKTEDTAVYYCTTGTDYWGQGTTVTVSS VL: DVVMTQSPLSLPVTPGRPASISCKSSQSLLYSNGKTYLNWLLQKPGQSPQRLIYLVSKLDSGVPDRFSGSGSGTDFTLKISRVEAEDLGVYYCIQGTYFPYTFGQGTKLEIK	3.06 ng/mL
huG14-219 (antibody, V domains shown) VH: EVQLVESGGGLVKPGGSLRLSCAASGLTFSNYWMNWVRQAPGKGLEWVALIRLYSDNYAIHYAESVKGRFTISRDDSKSTVYLQMNSLKTEDTAVYYCTTGTDNWGQGTTVTVSS VL: DVVMTQSPLSLPVTPGRPASISCKSSHSLLYSNGKTYLNWLLQKPGQSPQRLIYLVSKLDSGVPDRFSGSGSGTDFTLKISRVEAEDLGVYYCVQGTYFPYTFGQGTKLEIK	5.69 ng/mL
huG14-215 (antibody, V domains shown) VH: EVQLVESGGGLVKPGGSLRLSCAASGLTFSNYWGNWVRQAPGKGLEWVALIRLYSDNYAIHYAESVKGRFTISRDDSKSTVYLQMNSLKTEDTAVYYCTTGTDYWGQGTTVTVSS VL: DVVMTQSPLSLPVTPGRPASISCKSSQSLLYSNGRTYLNWLLQKPGQSPQRLIYLVSKLDSGVPDRFSGSGSGTDFTLKISRVEAEDLGVYYCIQGTYFPYTFGQGTKLEIK	3.41 ng/mL
huG14-225 (antibody, V domains shown) VH: EVQLVESGGGLVKPGGSLRLSCAASGLTFSNYWGNWVRQAPGKGLEWVALIRLYSDNYAIHYAESVKGRFTISRDDSKSTVYLQMNSLKTEDTAVYYCTTGTDNWGQGTTVTVSS VL: DVVMTQSPLSLPVTPGRPASISCKSSHSLLYSNGETYLNWLLQKPGQSPQRLIYLVSKLDSGVPDRFSGSGSGTDFTLKISRVEAEDLGVYYCIQGTYFPYTFGQGTKLEIK	6.28 ng/mL
huG14-210 (antibody, V domains shown) VH: EVQLVESGGGLVKPGGSLRLSCAASGLTFSNYWMNWVRQAPGKGLEWVALIRLYSDNYAIHYAESVKGRFTISRDDSKSTVYLQMNSLKTEDTAVYYCTTGTDYWGQGTTVTVSS VL: DVVMTQSPLSLPVTPGRPASISCKSSHSLLYSNGRTYLNWLLQKPGQSPQRLIYLVSKLDSGVPDRFSGSGSGTDFTLKISRVEAEDLGVYYCIQGTYFPYTFGQGTKLEIK	4.26 ng/mL
huG14-218 (antibody, V domains shown) VH: EVQLVESGGGLVKPGGSLRLSCAASGLTFSNYWMNWVRQAPGKGLEWVALIRLYSDNYAIHYAESVKGRFTISRDDSKSTVYLQMNSLKTEDTAVYYCTTGTDNWGQGTTVTVSS VL: DVVMTQSPLSLPVTPGRPASISCKSSHSLLYSNGETYLNWLLQKPGQSPQRLIYLVSKLDSGVPDRFSGSGSGTDFTLKISRVEAEDLGVYYCIQGTYFPYTFGQGTKLEIK	4.71 ng/mL
huG14-204 (antibody, V domains shown) VH: EVQLVESGGGLVKPGGSLRLSCAASGLTFSNYWMNWVRQAPGKGLEWVALIRLYSDNYAIHYAESVKGRFTISRDDSKSTVYLQMNSLKTEDTAVYYCTTGTDYWGQGTTVTVSS VL: DVVMTQSPLSLPVTPGRPASISCKSSHSLLYSNGETYLNWLLQKPGQSPQRLIYLVSKLDSGVPDRFSGSGSGTDFTLKISRVEAEDLGVYYCIQGTYFPYTFGQGTKLEIK	6.67 ng/mL
huG14-228 (antibody, V domains shown) VH: EVQLVESGGGLVKPGGSLRLSCAASGLTFSNYWGNWVRQAPGKGLEWVALIRLYSDNYAIHYAESVKGRFTISRDDSKSTVYLQMNSLKTEDTAVYYCTTGTDNWGQGTTVTVSS VL: DVVMTQSPLSLPVTPGRPASISCKSSQSLLYSNGKTYLNWLLQKPGQSPQRLIYLVSKLDSGVPDRFSGSGSGTDFTLKISRVEAEDLGVYYCIQGTYFPYTFGQGTKLEIK	9.88 ng/mL
huG14-207 (antibody, V domains shown) VH: EVQLVESGGGLVKPGGSLRLSCAASGLTFSNYWMNWVRQAPGKGLEWVALIRLYSDNYAIHYAESVKGRFTISRDDSKSTVYLQMNSLKTEDTAVYYCTTGTDYWGQGTTVTVSS VL: DVVMTQSPLSLPVTPGRPASISCKSSQSLLYSNGKTYLNWLLQKPGQSPQRLIYLVSKLDSGVPDRFSGSGSGTDFTLKISRVEAEDLGVYYCIQGTYFPYTFGQGTKLEIK	5.71 ng/mL
huG14-208 (antibody, V domains shown) VH: EVQLVESGGGLVKPGGSLRLSCAASGLTFSNYWMNWVRQAPGKGLEWVALIRLYSDNYAIHYAESVKGRFTISRDDSKSTVYLQMNSLKTEDTAVYYCTTGTDYWGQGTTVTVSS VL: DVVMTQSPLSLPVTPGRPASISCKSSQSLLYSNGRTYLNWLLQKPGQSPQRLIYLVSKLDSGVPDRFSGSGSGTDFTLKISRVEAEDLGVYYCIQGTYFPYTFGQGTKLEIK	4.02 ng/mL
huG14-206 (antibody, V domains shown) VH: EVQLVESGGGLVKPGGSLRLSCAASGLTFSNYWMNWVRQAPGKGLEWVALIRLYSDNYAIHYAESVKGRFTISRDDSKSTVYLQMNSLKTEDTAVYYCTTGTDYWGQGTTVTVSS VL: DVVMTQSPLSLPVTPGRPASISCKSSHSLLYSNGRTYLNWLLQKPGQSPQRLIYLVSKLDSGVPDRFSGSGSGTDFTLKISRVEAEDLGVYYCVQGTYFPYTFGQGTKLEIK	4.92 ng/mL
huG14-226 (antibody, V domains shown) VH: EVQLVESGGGLVKPGGSLRLSCAASGLTFSNYWGNWVRQAPGKGLEWVALIRLYSDNYAIHYAESVKGRFTISRDDSKSTVYLQMNSLKTEDTAVYYCTTGTDNWGQGTTVTVSS VL: DVVMTQSPLSLPVTPGRPASISCKSSHSLLYSNGKTYLNWLLQKPGQSPQRLIYLVSKLDSGVPDRFSGSGSGTDFTLKISRVEAEDLGVYYCVQGTYFPYTFGQGTKLEIK	10.7 ng/mL
huG14-211 (antibody, V domains shown) VH: EVQLVESGGGLVKPGGSLRLSCAASGLTFSNYWGNWVRQAPGKGLEWVALIRLYSDNYAIHYAESVKGRFTISRDDSKSTVYLQMNSLKTEDTAVYYCTTGTDYWGQGTTVTVSS VL: DVVMTQSPLSLPVTPGRPASISCKSSHSLLYSNGETYLNWLLQKPGQSPQRLIYLVSKLDSGVPDRFSGSGSGTDFTLKISRVEAEDLGVYYCIQGTYFPYTFGQGTKLEIK	3.34 ng/mL
